Measured values reported in patent US20170355992A1.

What was measured:
[1] = molecular target: prothrombin with an Alexa532 on the 271 cleavage site that was attached by mutating the arginine to a cysteine (UniProt P00734); assay: FRET, Alexa488-FVa donor and Alexa532 prothrombin acceptor, buffer control
[2] = molecular target: prothrombin with an Alexa532 on the 271 cleavage site that was attached by mutating the arginine to a cysteine (UniProt P00734); assay: FRET, Alexa488-FVa donor and Alexa532 prothrombin acceptor, with 2.5 µM RNA aptamer T18.3

## FVa with Alexa488 on the 539 residue (from UniProt P12259 29-2224)
[1]
  emission percentage (FRET): 16.3%
[2]
  emission percentage (FRET): 17.5%
